Experimental data published in patent US20240383988A1 (ERASCA, published 2024).

Experiments:
EGFR fragment D1-D2 = EGFR fragment D1-D2 (Homo sapiens (Human), UniProt P00533 25-334, limits assumed); assay: flow cytometry on transfected HEK293T cells, saturating IgG, signal normalized
human EGFR [1] = target: T1, human EGFR (human, UniProt P00533 25-645); assay: SPR with purified IgG on EGFR; column head 10^-4 (s-1)
T1 construct: Recombinant EGFR as used in SPR, ELISA and BLI; The phage selections used the EGFR ectodomain; also called immobilized EGFR; EGFR ectodomain (ECD)

EGFRvIII = target: T2, EGFRvIII (UniProt P00533 25-1210); assay: flow cytometry on transfected cells
T2 construct: whole, on cells; The deletion must be applied to it

EGFR-D28 = target: T3, EGFR-D28 (Homo sapiens (Human), UniProt P00533 25-1210); assay: flow cytometry on transfected cells
T3 construct: The deletion Cys240-Cys267 must be applied to the entry

human EGFR [2] = target: T1, human EGFR; assay: SPR, IgG; optimized variant IgG ER-2a
human EGFR [3] = target: T1, human EGFR; assay: SPR with purified IgG on EGFR; column head 10^5 (s-1M-1)
EGFR fragment D3-D4 = EGFR fragment D3-D4 (Homo sapiens (Human), UniProt P00533 334-645, limits assumed); assay: flow cytometry on transfected HEK293T cells

binding result (EGFR fragment D1-D2) | koff (human EGFR [1]) | Kd (human EGFR [2]) | kon (human EGFR [3]) | Binder | binding result (EGFRvIII) | binding result (EGFR-D28) | binding result (EGFR fragment D3-D4)
no binding |  |  |  | IgG ER-3a (antibody, V domains shown, IgG; also called Ab ER-3a) VH: EVQLVESGGGLVQPGGSLRLSCAASGFDLYSYSMHWVRQAPGKGLEWVASVSPSSGSTYYADSVKGRFTISADTSKNTAYLQMNSLRAEDTAVYYCARHWHVYPSYYWGGFDYWGQGTLVTVSS VL: not shown |  |  | 
 | 6.1e-05 s⁻¹ | 0.28 nM | 220000 M⁻¹ s⁻¹ | IgG ER-2a (antibody, V domains shown, IgG; also called Ab ER-2a) VH: EVQLVESGGGLVQPGGSLRLSCAASGFDVYYAAMHWVRQAPGKGLEWVASISPYYGYTSYADSVKGRFTISADTSKNTAYLQMNSLRAEDTAVYYCARYYHFSWHWSSFGGSYYPGMDYWGQGTLVTVSS VL: not shown | no binding (tested: saturating IgG concentrations) | no binding (tested: saturating IgG concentrations) | no binding (tested: saturating IgG concentrations)
